Measured values published in the DeepSol protein solubility set.

Test: soluble on expression in E. coli; label from the status in PepcDB or PDB records
For “MMNVPEGFQPLFRSSPLLDLLGPFFCRQDAQRQLVVALRIDEKHCNHGGTAHGGLLSTLADVGLGYAMAFSREPPQPMVTVGLRLDFCGVARVGDWLEVHTRVDKLGQRMAFASARLHSGERLVASASGVFHLP”, the “soluble on expression in E. coli” value was “not soluble”.
In the case of “MSLAPLVAMVGGGQLARMTHQAAIALGQNLRVLVTSADDPAAQVTPNVVIGSHTDLAALRRVAAGADVLTFDHEHVPNELLEKLVADGVNVAPSPQALVHAQDKLVMRQRLAAAGVAVPRYAGIKDPDEIDVFAARVDAPIVVKAVRGGYDGRGVRMARDVADARDFARECLADGVAVLVEERVDLRRELSALVARSPFGQGAAWPVVQTVQRDGTCVLVIAPAPALPDDLATAAQRLALQLADELGVVGVLAVELFETTDGALLVNELAMRPHNSGHWTIDGARTSQFEQHLRAVLDYPLGDSDAVVPVTVMANVLGAAQPPAMSVDERLHHLFARMPDARVHLYGKAERPGRKVGHINFLGSDVAQLCERAELAAHWLSHGRWTDGWDPHRASDDAVGVPPACGGRSDEEERREGHHHHHH”, the “soluble on expression in E. coli” value is reported as “soluble”.
In the case of “MGSDKIHHHHHHMKEAKKIDISKLKTGFLGKFPSHQLSRILSSEPDRLTEPEFLAKALKENKYVPYYYINVRENPTSIKIYRYVTKISNRDNDIDEVKNKFDSFLYGKSIVILDEVDFLQDYDVLYHITRHTKANLILLTQKVYWYMDTNDESVKSSLQPDHIVFYEYSSDEIREILKMRADEGLNKYDPDSLGLLSAMLVRNYRSDARIGIKALEIIGRMNEWDDDSVRTALKQAYVEVEGETLKNLGDRDLLILAALIKNQDTNRAYSEVSASSNLLLRGVSKSTFF”, the “soluble on expression in E. coli” value is reported as “not soluble”.
For “METPMHDEEESDSLNTSHLSDVELDDLVTTKFVEEFKNLKIADDSLEVVRDVGSPLNQALSPIERRNSDEFLLEDHPSLVRPIKDIFQRDEAMLLKNRILDASDEILKTNFMWNMFERSKKWRNTSHSSEVSLLDSLFQMVDRRPVLLHISCSRLTENDISCMIRKSLLDVAAQPRQKTVFRVTIKTEMPLKQFLGQLAMLLSTSPTIKFECAPVTALMKNLDGSMRKFYTAEVENFAEAELGLLSMSHLSPMNASARFKFTMNEKPFVTVNVGYHSNIDQCRRQKTIVIEQTVDGTVPARRVTFGFPLVSRVEEYELDEGLPFIPLRNSTKVFDLSQHFGNVQALPKVLDLKNIVFK”, the “soluble on expression in E. coli” value was “not soluble”.
For “MIETAIYGKTVDDQSRCVHWHLPKDVIAIRFKCCDKYYACFECHQELSSHPLEKYDLLDDANKHLIICGVCRHEMTFAEYYDYNSNLICPNCRSPFNPGCKLHYHLYFQNPPPAMC”, the “soluble on expression in E. coli” value was “not soluble”.
With “MSLGIRSGNNNGGFTNLTSQAPQTTQMFQSQSQLQPQPQPQPQQQQQHLQFNGSSDASSLRFGNSLSNTVNANNYSSNIGNNSINNNNIKNGTNNISQHGQGNNPSWVNNPKKRFTPHTVIRRKTTKQNSSSDINQNDDSSSMNATMRNFSKQNQDSKHNERNKSAANNDISSLLSNFNDIPPSVTLQDWQREDEFGSIPSLTTQFVTDKYTAKKTNRSAYDSKNTPNVFDKDSYVRIANIEQNHLDNNYNTAETNNKVHETSSKSSSLSAIIVFGYPESISNELIEHFSHFGHIMEDFQVLRLGRGINPNTFRIFHNHDTGCDENDSTVNKSITLKGRNNESNNKKYPIFTGESWVKLTYNSPSSALRALQENGTIFRGSLIGCIPYSKNAVEQLAGCKIDNVDDIGEFNVSMYQNSSTSSTSNTPSPPNVIITDGTLLREDDNTPAGHAGNPTNISSPIVANSPNKRLDVIDGKLPFMQNAGEGHHHHHH” the “soluble on expression in E. coli” value was “soluble”.
In the case of “MDSEEPPNVRVACSGDIDEVVRLMHDAAAWMSAKGTPAWDVARIDRTFAETFVLRSELLVASCSDGIVGCCTLSAEDPEFWPDALKGEAAYLHKLAVRRTHAGRGVSSALIEACRHAARTQGCAKLRLDCHPNLRGLYERLGFTHVDTFNPGWDPTFIAERLELEI”, the “soluble on expression in E. coli” value is reported as “not soluble”.
In the case of “MSLALDHVGIATEDAAGLAERFGAVFETQIAHSETFDGMYIIFLDMNGTYLELLEPVDDSDGPIATFLAQRDAGIHHIAIMTEDIATALENARAVGIECIDETPRQGAWGHQVAFLHPRSTGGVLCEFVQQEGHHHHHH”, the “soluble on expression in E. coli” value is reported as “soluble”.
In the case of “MNVTLLVADAVWSNIESTGSVTEEQLSILQLLFGKNLEKATRIIDKRGVKKISGLPSGRSIFQVVGESQKREEYLCFPGDYCGCYSFFYDVVSRGEHQCCKHQLAARLASSLGTYNEIEVSDDHLALMLSKI”, the “soluble on expression in E. coli” value is reported as “not soluble”.
For “MSLAHVCSVILVRRSFDIHHEQQKISLHNESILLLDKNLADDFAFCSLDTRRLDIEELTVCHYLQNIRQLPRNLGLHSKDRLLINQSPPIQLVTAIFDSFNDPRVNSPILSKMLYLSCLSMFSHKKELIPLLFNSISTVSGKVERLISFDIAKRWYLRDIAERMYTSESLIKKKLQDENTCFSKILLASRMSMARRLLELRQIPLHTIAEKCGYSSTSYFINTFRQYYGVTPHQFSQHSPGTEGHHHHHH”, the “soluble on expression in E. coli” value was “soluble”.
For “MGSDKIHHHHHHMTDRLFTETLLAAVGEDLLRTRLSEEFIRVDLGAETVAPLLTFDALSELLSTHQLEPPRLRLHRAGAPVPLDNYTEVGEASGVQRRLVRPEALYAQLRQGASLVLDGIDRIHPPIRAAADDLMRLVHERVQVNLYLIWGDSHGFNTHWDDHDTFIVQVAGTKHWQVHGQGTRPYPMKEDIDHSHQPPEGTVWEGTVRAGEVLHVPRGWWHTVTGTGDVSMHLTFGFTRATGVDWARWLVDRLYEVEFARRDLPRFATPEERRKHQHELLRHLMDLAEQHGLDEFLTDRDSRFPRRQSFSLPWAVDGATPQPDTVVEFTPILPSALRDEGQKVALTVAGRRYTFAKAAQPLLEVLVDARVLTVAELAERAGAEVETAAALARVLVQHHLVLLRSTS”, the “soluble on expression in E. coli” value was “not soluble”.
In the case of “FLILGTLFSSSLYADIDNAPLHALAKHQGFFFFFSSSCPHCQRFAPTLKRLSQHYGFSVVAISVDGGFLPSFPDAVMNEGQTKVFQVSVYPSLFLINPKSQVASLVTEGTIDEGELTNRLLKI”, the “soluble on expression in E. coli” value is reported as “not soluble”.
With “MSLSEYQDLSQQIELIATAEESEQTHLLGEMVENGLDEGSIALILEAFPVEQRVRLWRSLPLEMHIDVLTEMRAEVRISVINALSEIELKLTLAKLDNLSLIEWEDSLPDDIISEALSLINRDELELYDQANEFADDEIGHWADRKVYTLPFSISVRRAKVLLDKYHYDSPQYIYLINKAKKFRGLVSFSDVLQAEETTQLKNLRMEELVTLNAKQTLSDAVDALEHTTLPIVPVLSDDETLIGEIDWHFALSVQREMYEARLMAGTGMDEGDDLFAPVIKSEGHHHHHH” the “soluble on expression in E. coli” value was “soluble”.
With “MGSDKIHHHHHHMNEIAEVLPESMKNALSEIPEQQWLEIEEVRIRINRPVELIRRGQPVYLSYAGTAEDAHLILSRLSNYSMYTLEEELKKGYVTIRGGHRVGLAGRVITENGGVKGLRDIASFNIRIARQKLGIAEPLLPYLYQNSWLNTLIIGPPQTGKTTLLRDLARLSSTGKKNMLPVKTGIVDERSEIAGCLRGIPQHQFGQRIDVLDACPKAEGLMMMIRSMSPEVMIVDEIGRMEDTDALLEALHAGVSVIVSAHGWSISDLMKRPSLKRLWEERAFDRYLELSRAKGPGTVSQIYDKDGNVLSRTTGVKTC” the “soluble on expression in E. coli” value was “not soluble”.
In the case of “MGSDKIHHHHHHETNNLKTKEDMYKYFGTSKSMLTHVYSYMPQGYQLFATSGGIFTEDRYSMRDCASDDGEFGAYADNIQNTNNGNWSPIKTYDDSWTLYRGIRAANSFIAEIAQVDFTRYEHDGQYTNWMKQLKYFPYEARVLRAHYFFELARRYGDIAMPLEVLTEEEANTIGKTPFSEVISFIVSECDDAANNLPDSYVNEPGAEIGRVTKGFAMAVKSKALLYAASKLHNPSMDTELWKKSAKAAIDIINTGLYSLDPQESANNLDSKEVVLMRINGDDSDFEMFNLPLRMTAGTRTSSLIPYSNYPSQNLVDAFETVNGYKVTLENTGWVCEDPAFDPQSPYENRDKRFYRAILANGMSFKDYTIETFKGGADDGIVSQGGSPTGYFLRKYIQEATSFEPGKEAVSKHHWVIYRYAETLLTYAESMVNAFNDVNYTDETYKYSALWAINEVRKNADMPLIPSMGKDEFMERLYNEWRVEFAFEDHRFWDVRRWKIADTTQRELYGVKIEKQADGTFNFYKNLYETRNWRDCMYLYPIPQSELYKNTNLNPQNTGW”, the “soluble on expression in E. coli” value is reported as “not soluble”.
In the case of “MGSDKIHHHHHHMNFKQLNYFLVVAEEGQITSAAKRLFVGQPALSYQLKQLEEELGAKLFIRQPYGIELTEAGKKLRDYAGQILTLAQNVQTEITELDRGGWGRVKLGSVSSSIGELPSAKLTAFARQHPGVSFDIYEDNTFGILDKLQGNLLDLAIVRTPYNRVNLNFVDISDEPMTAVTCQDFFPGKGKVGLQDLAGQPLVIYRRFEDMFKEAFAEKGLTPNFVVKCDDSRTAIRWSDSGLGIALVPESIAKTYARGHIYPIDLAKWRTRLQLVWRKDRVVTPLMRQIIALYAK”, the “soluble on expression in E. coli” value is reported as “not soluble”.
In the case of “MSLKEAIVERIVNKLNENQKEKIGVELPSGKRIPEFPVSHLIRFKTWKSLDYVLKDPEMGFGEGYMNGDIEVEGDLEEVIKRGMTLFKDTRKFEKLFGILRHVPLFRTIRDERNVKHHYDLGNDFYRLWLDKSMTYSCAFFEDPSMSIDEAQSLKRRIIYEKLQLKEGDTLLDIGCGWGSIILESAELYNVKSVGITLSDNQYEYVKEEIKKRGLQDKVEVYKLHYVDLPKLGRKFNKVVSVGMFEHVGKENYETFFNTVYKVMEEGGLFLLHTIGKLHPDTQSRWIRKYIFPGGYLPSISEIVESFRDMDFTLIDFDNWRMHYYWTLKKWKERFYENLDKIRNMFDDRFIRMWELYLTASAVSFLIGSNYVFQILLSKGVKDDYPVIKREFSGVLFKEGHHHHHH”, the “soluble on expression in E. coli” value is reported as “not soluble”.
For “HHHHHHGILMMANRMILNETAWFGRGAVGALTDEVKRRGYQKALIVTDKTLVQCGVVAKVTDKMDAAGLAWAIYDGVVPNPTITVVKEGLGVFQNSGADYLIAIGGGSPQDTCKAIGIISNNPEFADVRSLEGLSPTNKPSVPILAIPTTAGTAAEVTINYVITDEEKRRKFVCVDPHDIPQVAFIDADMMDGMPPALKAATGVDALTHAIEGYITRGAWALTDALHIKAIEIIAGALRGSVAGDKDAGEEMALGQYVAGMGFSNVGLGLVHGMAHPLGAFYNTPHGVANAILLPHVMRYNADFTGEKYRDIARVMGVKVEGMSLEEARNAAVEAVFALNRDVGIPPHLRDVGVRKEDIPALAQAALDDVCTGGNPREATLEDIVELYHTAW”, the “soluble on expression in E. coli” value was “soluble”.
For “RALEDEDMRKVFSRLSKSSTIPSDLRRTKELFILMFLLRGLPFVDLAYLRKSDLRGNVITYRRRKTGRSLSVTLTPESMLLLEKHISRDLSSPYLFPILHSIEGSQEAYREYQLALRSFNQHLELLGQWLGLESKLSSYTARHTWATTAYYCEIHPGIISEAMGHSSITVTETYLKPFRNRKIDEAN”, the “soluble on expression in E. coli” value was “not soluble”.
In the case of “MSHLNYNHLYYFWMVCKQGSVTKAADALFLTPQTVTGQIKALEDRLDGKLTKRNGRSIEPTELGQLVFKYADRMFGLSYEMLDIVNYSQRSNLLFDVGVADALSKRLVSKILLTSVPGDNRIHLRCFESTHEMLLEQLAQHKLDMILSDCPVDSSQSPGLFSKKLGESRMSFFSFGDVDFAPFPAVLQSKKLLVPGSRTAMGRKVRQWFDRQGLQPHILGEFDDSALMKAFAIYHSDAVFMAPSFYVSEVDAESSLKLIGHVDEIKEEYYVIFAERMIQHPAVKNVCDADFTNLFL”, the “soluble on expression in E. coli” value is reported as “not soluble”.
For “YKEFKLKRVYYSGYIPINHEDHALPAVGSAPPLLRENRLYQSDWLMRFYGFAADEIVNPQHPNLDLDVDPKLGWALRHPEQFPVDINRADYRMILRVPGIGVRSAKKIMHARRFGALRIDQLKRMGVAYSRAQHFIYCID”, the “soluble on expression in E. coli” value was “not soluble”.
With “MRPQQLHATEITSSGFRLAWPPLLTADSGYYVLELVPSAQPGAARRQQLPGNATDWIWAGLDPDTDYDVALVPESNVRLLRPQILRVRTRPGEAGPGASGPESGAGPAPTQLAALPAPEEAGPERIVISHARPRSLRVSWAPALGSAAALGYHVQFGPLRGGEAQRVEVPAGRNCTTLQGLAPGTAYLVTVTAAFRSGRESALSAKACTPDGPRPRPRPVPRAPTPGTASREP” the “soluble on expression in E. coli” value was “soluble”.
